One molecule from publication PMC10679500, “Posttranslational modification and heme cavity architecture of human eosinophil peroxidase—insights from first crystal structure and biochemical characterization” (The Journal of Biological Chemistry, 2023) can be followed below.

This test addresses T1, eosinophil peroxidase heavy chain (human, UniProt P11678 251-715, Glu380 ester-linked to the heme cofactor (hydroxymethyl group on pyrrole ring A); N-glycans at Asn327 and Asn363).
T1 construct: human eosinophil peroxidase (EPO), C-terminal heavy chain of the mature enzyme; G250/V251-T715; N-terminus heterogeneous (G250 or V251); first resolved residue in the crystal is Val251; One of the two polypeptides of mature leukocyte EPO; part of the sample may begin at G250; A mixture of glycoforms was crystallized; also called EPO H-chain; HC
T1 sequence (looked up): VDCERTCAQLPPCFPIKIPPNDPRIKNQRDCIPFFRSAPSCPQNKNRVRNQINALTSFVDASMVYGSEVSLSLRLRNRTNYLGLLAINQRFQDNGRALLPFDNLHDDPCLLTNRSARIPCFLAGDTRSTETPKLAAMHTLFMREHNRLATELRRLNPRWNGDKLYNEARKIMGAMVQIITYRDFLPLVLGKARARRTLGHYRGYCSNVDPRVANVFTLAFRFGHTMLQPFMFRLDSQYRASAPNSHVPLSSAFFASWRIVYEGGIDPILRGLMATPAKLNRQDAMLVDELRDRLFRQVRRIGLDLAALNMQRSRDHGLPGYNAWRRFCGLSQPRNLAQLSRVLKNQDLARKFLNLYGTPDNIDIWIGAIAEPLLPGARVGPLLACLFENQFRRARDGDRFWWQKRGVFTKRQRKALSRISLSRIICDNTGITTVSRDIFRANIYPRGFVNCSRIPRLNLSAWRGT
The test can be described thus: crystal structure; mixture of EPO glycoforms from human leukocytes, 10 mg/ml in 5 mM phosphate pH 7.0; crystallized in 0.2 M trisodium citrate pH 4.1, 20% (w/v) PEG, vapor diffusion, 22 °C; 1.6 Å; one monomer per asymmetric unit. The settings on record: both partners purified.

B1: eosinophil peroxidase light chain (domain or fragment)
chain: not shown
modifications: Asp232 ester-linked to the heme cofactor (hydroxymethyl group on pyrrole ring C)
notes: human eosinophil peroxidase (EPO), N-terminal light chain of the mature enzyme after removal of signal peptide, propeptide (18-139) and the peptide V/AFTA/G; R140-R244/V245; C-terminus heterogeneous by MS (77.2% arginine, 23.8% valine as terminal residue); last resolved residue in the crystal is Arg244; One of the two polypeptides of mature leukocyte EPO; a minor part of the sample ends at V245; …
Regarding B1, the binding result is “binds”.
